In the series the target is CREB1 (recombinant, Ni-affinity purified) (UniProt P16220 1-327). In words: EMSA; LightShift EMSA kit: 2 ul 5x binding buffer, 6 ul CREB1, 1 ul probe, 25 C, 20 min; salt and pH not stated. As to conditions: protein: recombinant; (Ni-chelating purification); chain copies: 2; label: 5' 6-FAM (FITC) on forward strand (Methods); blunt. Background: Mobility shift assays separate free from complexed probe on a gel.
Chain of CREB1 (recombinant, Ni-affinity purified) (P16220 whole entry): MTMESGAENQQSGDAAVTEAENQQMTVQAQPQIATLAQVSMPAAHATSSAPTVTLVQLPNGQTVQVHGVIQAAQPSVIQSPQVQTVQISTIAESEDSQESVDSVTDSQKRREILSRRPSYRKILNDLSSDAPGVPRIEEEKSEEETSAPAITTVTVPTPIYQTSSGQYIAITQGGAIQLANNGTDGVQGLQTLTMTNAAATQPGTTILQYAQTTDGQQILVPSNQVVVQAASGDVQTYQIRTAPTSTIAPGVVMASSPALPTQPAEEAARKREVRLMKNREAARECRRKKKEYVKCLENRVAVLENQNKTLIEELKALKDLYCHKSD

B1: MITF-wt probe (dsDNA)
DNA 1: TGGATGTCTTTTCTGATGTGAAATTAAA
DNA 2: TTTAATTTCACATCAGAAAAGACATCCA
For B1, the binding result is “binds”.
